According to the DeepSol protein solubility set:

Assay: soluble on expression in E. coli; label from the status in PepcDB or PDB records

| Sequence | soluble on expression in E. coli |
| --- | --- |
| MNWPLLYDMQRMLDRRIETEHGLMEEDLFARKQLAFLVELGELANETRCFKFWSIKPPAPAERVLEEYVDGLHFLLSLGLECGLFYEENEAPSAGRPLVEQFLAVFRAAERFGETRARGEYDALFAEYWRLGVALGFSSDDIEAAYRRKNEVNHKRQNERY | not soluble |
| MASQNRDPAATSVAAARKGAEPSGGAARGPVGKRLQQELMTLMMSGDKGISAFPESDNLFKWVGTIHGAAGTVYEDLRYKLSLEFPSGYPYNAPTVKFLTPCYHPNVDTQGNISLDILKEKWSALYDVRTILLSIQSLLGEPNIDSPLNTHAAELWKNPTAFKKYLQETYSKQVTSQEP | soluble |
| MPHNSVKHSTRLDVIPLKTAEKHPNSQRRFHVMSKPGGSKCNLDCQYCFYLHKDELLHQPKQPMMDDTTLEAFIKSYIESQDGHEIVFSWQGGEPTLLGLDYFKKIVQLQNKYRPSGVKIENDLQTNGILLNDEWCQFLKDNGFLVGLSIDGPKELHDKYRVTRSGKPTFNLVMAAAKRLQEHHVPFNSLVVVNRHNAKHPLDVYRFLTKELGATYIQFTPCVEAKDFTTTAPQFWNETMIPNKGSELAKPGHPMSIVTDWSVDPDDWGNFLNTVFVEWVNNDLGRVLVNLFETAVAQVMGKESQLCVTAEFCGKGLAMEHNGDVFSCDHYVYPEYKLGNIHDRGLNEFAFSIRQHGFGMAKRDSLPSYCKSCPHLKLCWGECPKNRLINTPNGEPGLNYLCSGIRAFFDESLPMLTGLSVLLQRQENTQK | not soluble |
| MARPKSEDKKQALLEAATQAIAQSGIAASTAVIARNAGVAEGTLFRYFATKDELINTLYLHLKQDLCQSMIMELDRSITDAKMMTRFIWNSYISWGLNHPARHRAIRQLAVSEKLTKETEQRADDMFPELRDLCHRSVLMVFMSDEYRAFGDGLFLALAETTMDFAARDPARAGEYIALGFEAMWRALTREEQ | not soluble |
| MSLVWKLLGGSKKEFVTPYASLLPDGHTLKEYSDSLVKKTIKAKELGFKAAKLEICIKGPYSHNNLQIEDDREFANMVKLCRKAVGNDMILMADVAYAWPDWKTALIALNMVENEDLFFIETPLPIEDLKGSKKLAEHSKTRIATGEMLQTRFECFETIEKGGIDVIQPDVGRVGGLTEAKRVCDYAEDNGILVVPHCWKSAIGIAASAHLSATTNMCPYIEFLPKELAESQLRKDLVLKELDVVDGQIPLPQQPGLGIEINDDKLKEYGVEGHHHHHH | not soluble |
| GAMDAAVAPEERHLSKMQQNGYENPTYKFFEQMQN | soluble |
| MKQDGEEGTEEDTEEKCTICLSILEEGEDVRRLPCMHLFHQVCVDQWLITNKKCPICRVDIEAQLPSES | soluble |
| MGEHKQNLSLQDMTHSDTGQIAYLKKVCTDDLAKNFPDLPPMTPGITVWALFGETGYPIILSDERSIALAGANEHELQIVTLH | not soluble |
| MGSDKIHHHHHHMDNKTQEKADFTLANAYGGVEMVRADYKGQAFSKHVHEGYTIGVIEKGAQRFYRSGEIHTADTNSIILVNADDVHTGESASSGGWQYRAMYPLPEHFENISNDLYDKGKFAPYFGSSVINDPLLTDQLRLLFNQVDNNASQLLTETIMYSLMLRLTLRHSSLRHVPKDISGSKAKLLRVKEYLDSYPAEDISLKQLAIIAGLSQYHFIRQFKKMFDLAPHSYQIQARLKKAKTLLKAGVKPVMVASDCGFHDQSHFNRHFKKALGTSPSKFQKQAVLYKN | not soluble |
| MVKVEDAIVARLESHGYHFEILVDPDAIERIRKGNIDIENDLAFPEVYKDVRKGEKASDDSLKEAFKTTVIAQVAIEIVKKGQIQLTTEQRREMYDERRKQIVNLIAREGINPQTNTPHTPYRISQAMDEAKVKIDPLKPAEDQVQNVLKAIMPIIPIRLEKAKIAVKLIGDAYGKLYGELAKSGYM | not soluble |
| MAHHHHHHMAHGAAQCTLAAPGCVYLTPEQEEQLVDRLYTQSLLQKEATLAELDARYYPVTASQTISQETLQKSVQRQVDVEMERRQQRRKEMDAMAVAKAMGHASGSRAAASKKTVTAEETDVSVRRLYDDALAQKKARKAESERLYAFHPEDLKSAKMSKAALQESVNRMSKPKKTEFAVAEVNKIYGL | soluble |
| GACDNDTEPGGTAVEKMAGDWWVTVNAFIDGKEVEDPFGAGHLQMSTYNTASNSETEMWLDDLGNFWEYKLKVNVNYAARTFSTTGFVDNVTYESKVKITDGKVLEKAATTPSGMPADSIVYMVQFDDDEDGLTYKVSGFRRTGFPADDF | soluble |
| MSLKRVVIIGMGFGGIRAARVLAGKGLDVVLVDRNNYHLFQPLLYQVGTAGLEQESIAYPVRAMAREWRGTRFHLAEVAGVDFPAREVVTGNGRIPYDYLIIGAGSVTNYFGLESVERHAFDLKELVDGERLRNHILTAFERAVVEPDPAKRRALMTFVIVGGGPTGVEFAGALMELVRYVLAKDYPELSVQAARVVLVEAFDRLLAAMPQELQVYTLEKLRAMGVEVLFNARVEGHHHHHH | not soluble |
| MAHHHHHHMRVRSLLLCIRRDPLQRAVDVAYASGMLLGSGSSRGTTHFSETTAFTSSNFAADLRGGRVGLAGDGGTKCDDRNGELVRGRIQFASRCAEGPFVGASPTVTSCAHIEGVVRQVECGYVGGDRVLQFIIEVEEVPASGGTPMRLPLAVRWRPGSEVAQNRMDEWQKEMERLVGRRVLASGRLQVEECFDSGSRRLYKTPSLVLPATSTVEMISLQELEC | not soluble |
| FYHDYTVTQDELLKDSSDALKKEFLKILDKAIKRLILMANGDTIVIPLSGGYDSRAIATMLKKNGYENVILYTYGKPDSTEVRVAREVAKNLEFEWIFVEQNEDIVDPDYPERDFFLEFYKYAFNHVSTIHLQDFFVFKHLHDNSVIPKNSIIVPGHSGDFLGGSHLRKLPIPKSKRDVFNTILIKHYIVNEHIKLSPYVVKKINEYLNSFSEHTLPYSLDDNWNMKERQAKFIVNSNRTYEFFGYRHAIPLWDLELVEFFRRVPLEYKTKEVIYSDALRESVFKDFGVVLSQKDVANTMALEFYHRIFHSMEIFRHIRYFAEKN | not soluble |
| MSLYSIIDIETTGGHASGNRIIEIAIYKFDGEKITDTYQTLINPERRIPVFITSLTGIDTEMVADAPVFADVAREITDFTRDSVFVAHNVNFDYTFVKKELQALNMPYNLPKLCTVRLSRKIFPGLPSYSLGNLCGSLGIDVQNRHRAAGDAEATVRLLNKLLLNDTEGFIPKSLKKNSKETLLPANLPREQFDALPETFGVYYFHDHKGKVIYVGKANNIKKRVISHFSGKQQNQKSQQFMQAIYGLSYEVCGSELLSLLLESHEIKKYFPVYNSIQKFGEKNYGIYQYEDNAGFIRLSIAKVNKLQHPLISFRYISEARTFLLEKVRTFQLCHRRSGLQTAPCSDVELCTACKGTTRSTAYNVKMKRALATFEHPDHSYIIKQPGRTRDEYAVIVVEAGRYLGYAYIPADLSGSTIEELKPFVNRHPDNRDIQKILAMHQRKSMVIAVEGHHHHHH | not soluble |
| MSLVTSVSKLMFLGGSNKLICHNKETFVKILENPNQPLITVSNHRSNIDDPLMWCILKFREFWRYKDRNRYTLAAHNICFTKQFHTTMFSLGRCVPCVRGEGVYQKGMDFCVDMLNDNKWVHIFPEGKVCTLESEPLRFKWGIGRLVMDAKTDPVILPVWCKEMEKVWPTQPPYYPKFGNTVTVHIGEPFFLSDLKKTVLSKSLTTEQMRKIITDEVQTRMYQLGEKVGDLPKGSSLEILRKNPPIEY | not soluble |
| MGSDKIHHHHHHMRKLLNTLYVTSPNTYLSLDGENIVILKDDVEALRVPLHNLESIIAFGYTGASPALMGACAKRNISLSFMKSNGKFLGRVVGEVRGNVTLRKAQYRLSDDEATSHRIAKSFILGKVYNSRWVVERATRDHGARLDVEKLKGVCQTLANALRLVENSKDLDQLRGVEGEAAAQYFRVLDDLILQQKEDFYFKCRNKRPPLDNVNAMLSFIYTLLAHDAAAALETVGLDPYVGFLHRDRPGRISLALDLMEELRAVFADRFVLSLINRREVNPSGFTRMENGAVVMDDDTRRDILKAWQSRKQEEIKHPFLQEKMEWGLVPYAQAMLLARFIRGDLDGYPAFMWK | not soluble |
